Patent US20030186377

Test system: T-bet protein (modified forms used as substrates in in vitro kinase assays)

## ITK
  phosphorylation in in vitro kinase assay: Both the ITK and Rlk/txk kinases have been found to phosphorylate T-bet in vitro.

## Rlk/Txk
  phosphorylation in in vitro kinase assay: Both the ITK and Rlk/txk kinases have been found to phosphorylate T-bet in vitro.
